Test results reported in PMC12320502.

Biological target: HSPA5 tagged with Myc (pcDNA3.1) (UniProt P11021)
Assay: Co-IP (IP: Flag, immunoblot: Myc), band intensity number under the Myc blot
Conditions: parent: 1.0

Chain of UniProt P11021 (P11021 19-654): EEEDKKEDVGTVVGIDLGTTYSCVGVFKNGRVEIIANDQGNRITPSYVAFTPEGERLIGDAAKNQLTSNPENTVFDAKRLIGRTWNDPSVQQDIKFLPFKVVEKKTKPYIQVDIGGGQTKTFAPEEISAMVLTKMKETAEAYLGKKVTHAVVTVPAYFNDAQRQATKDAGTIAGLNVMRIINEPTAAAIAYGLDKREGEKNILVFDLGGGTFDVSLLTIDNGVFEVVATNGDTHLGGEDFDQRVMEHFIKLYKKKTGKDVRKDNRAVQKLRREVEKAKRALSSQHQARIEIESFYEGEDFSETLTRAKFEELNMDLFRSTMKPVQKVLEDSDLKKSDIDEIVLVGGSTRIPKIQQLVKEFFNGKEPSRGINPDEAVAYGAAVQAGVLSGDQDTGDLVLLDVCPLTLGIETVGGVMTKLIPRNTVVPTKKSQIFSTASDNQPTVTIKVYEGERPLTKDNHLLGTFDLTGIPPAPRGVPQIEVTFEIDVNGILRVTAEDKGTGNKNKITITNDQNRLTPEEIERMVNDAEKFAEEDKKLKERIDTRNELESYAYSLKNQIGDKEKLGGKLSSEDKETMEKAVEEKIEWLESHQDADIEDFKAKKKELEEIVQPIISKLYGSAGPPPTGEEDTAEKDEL

Substance | ratio to parent
SBSPON tagged with 3×Flag (pcDNA3.1-3×Flag-SBSPON) (from UniProt Q8IVN8) HIS134Vla | 0.8
SBSPON tagged with 3×Flag (pcDNA3.1-3×Flag-SBSPON) (from UniProt Q8IVN8) LYS91Vla | 0.9
SBSPON tagged with 3×Flag (pcDNA3.1-3×Flag-SBSPON) (from UniProt Q8IVN8) GLU123Vla | 0.9
SBSPON tagged with 3×Flag (pcDNA3.1-3×Flag-SBSPON) (from UniProt Q8IVN8) ASP88Vla | 0.7
SBSPON tagged with 3×Flag (pcDNA3.1-3×Flag-SBSPON) (from UniProt Q8IVN8) ASP88Vla; LYS91Vla; GLU123Vla; HIS134Vla | 0.8
